Test results from patent publication US20240093191A1, “COMPOSITIONS AND METHODS FOR TREATING DISEASE ASSOCIATED WITH DUX4 OVEREXPRESSION” (RESEARCH INSTITUTE AT NATIONWIDE CHILDREN'S HOSPITAL, priority 2021, published 2024).

System: mir-675-5p
Experiment: TaqMan QRT-PCR of mature mir-675-5p from transfected constructs in HEK293 cells
Format: cell-based, human
Description: RNA Extraction. RNA from HEK293 cells was extracted for Northern blot assay and QPCR. The miRVANA miRNA isolation kit (ThermoFisher Scientific) was used according to manufacturer's directions to extract total RNA encompassing small RNAs, such as miRNAs. To extract RNA from C57BL/6 skeletal muscles, cryopreserved muscles were crushed under suboptimal temperatures using liquid nitrogen and using mortar and pestle. Crushed muscles were then lysed using […] of miRVANA miRNA isolation kit lysis buffer, a TissueLyser and 1.0 mm zirconia beads (Biospec). Muscle was homogenized at 30 Hz for 30 sec with 10 sec rest. This was repeated 3 times.
TaqMan Gene Expression Assay. QRT-PCR was carried out to quantify the expression of pri-mir-675, mir-675-5p and mi405 using TaqMan probes (ThermoFisher Scientific). Experiments were started by eliminating genomic DNA from the RNA preparations, and then cDNA was generated using the High-Capacity cDNA Reverse Transcription Kit (Applied Biosystems) following manufacturer's instructions. Within the same cDNA reaction, 1×RT random hexamer primers were used to generate the cDNA for RPL13A, used as a reference gene, and for pri-mir-675. To generate the cDNA for mir-675, the RT mir-675 reverse primer provided by ThermoFisher Scientific was used. For mi405, the mi405 qPCR protocol was done as it was previously described [Wallace et al., Mol. Ther. Methods Clin. Dev. 8: 121-30 (2018)]. To quantify mir-675 and mi405 levels, RNA was extracted using the total RNA protocol for the mirVana miRNA Isolation Kit (Ambion) from HEK293 cells. cDNA was generated using the High-Capacity cDNA Reverse Transcription Kit (Applied Biosystems) using a mix of random hexamer primers and specific reverse primer for pri-mir-675 and mir-675-5p. For mi405, 200 nM of the stem-loop forming primer (5′-[…]-3′) (SEQ ID NO: 144) was also used for the RT step. A custom TaqMan assay (Applied Biosystems) including 1.5 μM of Forward primer (5′-[…]-3′) (SEQ ID NO: 145), 0.7 μM of Reverse primer (5′-GTGCAGGGTCCGAGGT-3′) (SEQ ID NO: 146), and 0.2 μM of mi405 probe (5′-6FAM-ATACGACGTCCAGGAT-3′) (SEQ ID NO: 147) was then run using the CFX Connect Real Time system apparatus (Bio-Rad). RPL13A (Mm02526700_g1; Applied Biosystems) served as the reference gene. The TaqMan gene expression assay consisted of using the TaqMan Gene Expression Master mix and TaqMan probes purchased from ThermoFisher Scientific. 1× of probe was mixed with 1× of the TaqMan Gene Expression Master mix (ThermoFisher Scientific), and with 20 ng of cDNA. The mir-675- and mi405-specific primers and probes were designed to quantify only the mir-675-5p and mi405 mature sequence (see TaqMan Gene Expression Master mix protocol).

B1: H1.mir-675: commercially available H1 promoter mir-675 expression plasmid (SBI Biosciences) (nucleic acid)
DNA: GAACGCTGACGTCATCAACCCGCTCCAAGGAATCGCGGGCCCAGTGTCACTAGGCGGGAACACCCAGCGCGCGTGCGCCCTGGCAGGAAGATGGCTGTGAGGGACAGGGGAGTGGCGCCCTGCAATATTTGCATGTCGCTATGTGTTCTGGGAAATCACCATAAACGTGAAATGTCTTTGGATTTGGGAATCTTATAAGTTCTGTATGAGACCACCCCCCAGGGTCTGGTGCGGAGAGGGCCCACAGTGGACTTGGTGACGCTGTATGCCCTCACCGCTCAGCCCCTGGGGAATTCTTCGATTCTGCTTTTTT
23 mer mature mir-675-5p, HEK293, 24 h post-transfection
  mir-675-5p levels compared to U6.mir-675: 232±35%
HEK293 co-transfected with CMV.DUX4-FL/CMV.eGFP
  mir-675-5p overexpressed levels compared to milacZ sample: ~2000 fold
